Earlier results on two substances are cited in patent US20230192878A1, “METHODS, THERAPIES AND USES FOR TREATING CANCER” (PFIZER INC., priority 2020, published 2023).

pKd: −log10 of the molar value.

This data set concerns the target T1, BCMA (Homo sapiens, UniProt Q02223).
T1 sequence (Q02223 1-184): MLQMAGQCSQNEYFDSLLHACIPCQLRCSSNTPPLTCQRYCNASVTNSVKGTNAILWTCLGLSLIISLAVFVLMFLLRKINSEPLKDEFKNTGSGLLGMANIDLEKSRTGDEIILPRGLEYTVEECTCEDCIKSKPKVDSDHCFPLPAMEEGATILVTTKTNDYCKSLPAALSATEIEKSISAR
To be noted: binding to BCMA; read-out: affinity; cited from earlier work.

“APRIL: a proliferation-inducing ligand, ligand of BCMA”: the pKd was 7.80. Turning to “BAFF: B-cell activation factor, ligand of BCMA”, the pKd was 6.00.
